Laboratory results taken from IntAct's records for PubMed 31515488.

B1: Paraneoplastic antigen-like protein 5 (Homo sapiens), Q96PV4 (parent)
chain: MALTLLEDWCKGMDMDPRKALLIVGIPMECSEVEIQDTVKAGLQPLCAYRVLGRMFRREDNAKAVFIELADTVNYTTLPSHIPGKGGSWEVVVKPRNPDDEFLSRLNYFLKDEGRSMTDVARALGCCSLPAESLDAEVMPQVRSPPLEPPKESMWYRKLKVFSGTASPSPGEETFEDWLEQVTEIMPIWQVSEVEKRRRLLESLRGPALSIMRVLQANNDSITVEQCLDALKQIFGDKEDFRASQFRFLQTSPKIGEKVSTFLLRLEPLLQKAVHKSPLSVRSTDMIRLKHLLARVAMTPALRGKLELLDQRGCPPNFLELMKLIRDEEEWENTEAVMKNKEKPSGRGRGASGRQARAEASVSAPQATVQARSFSDSSPQTIQGGLPPLVKRRRLLGSESTRGEDHGQATYPKAENQTPGREGPQAAGEELGNEAGAGAMSHPKPWET

Variants of: B1
Conditions: with arpc4_human ARPC4, P59998

| Variant | effect of a mutation on the interaction |
| --- | --- |
| L21Q | disrupting interaction strength |
| R312Q | with no effect |
| T261A | with no effect |

Variants of: B1
Conditions: with zfy26_human ZFYVE26, Q68DK2
zfy26_human ZFYVE26, Q68DK2, sequence (Q68DK2 whole entry): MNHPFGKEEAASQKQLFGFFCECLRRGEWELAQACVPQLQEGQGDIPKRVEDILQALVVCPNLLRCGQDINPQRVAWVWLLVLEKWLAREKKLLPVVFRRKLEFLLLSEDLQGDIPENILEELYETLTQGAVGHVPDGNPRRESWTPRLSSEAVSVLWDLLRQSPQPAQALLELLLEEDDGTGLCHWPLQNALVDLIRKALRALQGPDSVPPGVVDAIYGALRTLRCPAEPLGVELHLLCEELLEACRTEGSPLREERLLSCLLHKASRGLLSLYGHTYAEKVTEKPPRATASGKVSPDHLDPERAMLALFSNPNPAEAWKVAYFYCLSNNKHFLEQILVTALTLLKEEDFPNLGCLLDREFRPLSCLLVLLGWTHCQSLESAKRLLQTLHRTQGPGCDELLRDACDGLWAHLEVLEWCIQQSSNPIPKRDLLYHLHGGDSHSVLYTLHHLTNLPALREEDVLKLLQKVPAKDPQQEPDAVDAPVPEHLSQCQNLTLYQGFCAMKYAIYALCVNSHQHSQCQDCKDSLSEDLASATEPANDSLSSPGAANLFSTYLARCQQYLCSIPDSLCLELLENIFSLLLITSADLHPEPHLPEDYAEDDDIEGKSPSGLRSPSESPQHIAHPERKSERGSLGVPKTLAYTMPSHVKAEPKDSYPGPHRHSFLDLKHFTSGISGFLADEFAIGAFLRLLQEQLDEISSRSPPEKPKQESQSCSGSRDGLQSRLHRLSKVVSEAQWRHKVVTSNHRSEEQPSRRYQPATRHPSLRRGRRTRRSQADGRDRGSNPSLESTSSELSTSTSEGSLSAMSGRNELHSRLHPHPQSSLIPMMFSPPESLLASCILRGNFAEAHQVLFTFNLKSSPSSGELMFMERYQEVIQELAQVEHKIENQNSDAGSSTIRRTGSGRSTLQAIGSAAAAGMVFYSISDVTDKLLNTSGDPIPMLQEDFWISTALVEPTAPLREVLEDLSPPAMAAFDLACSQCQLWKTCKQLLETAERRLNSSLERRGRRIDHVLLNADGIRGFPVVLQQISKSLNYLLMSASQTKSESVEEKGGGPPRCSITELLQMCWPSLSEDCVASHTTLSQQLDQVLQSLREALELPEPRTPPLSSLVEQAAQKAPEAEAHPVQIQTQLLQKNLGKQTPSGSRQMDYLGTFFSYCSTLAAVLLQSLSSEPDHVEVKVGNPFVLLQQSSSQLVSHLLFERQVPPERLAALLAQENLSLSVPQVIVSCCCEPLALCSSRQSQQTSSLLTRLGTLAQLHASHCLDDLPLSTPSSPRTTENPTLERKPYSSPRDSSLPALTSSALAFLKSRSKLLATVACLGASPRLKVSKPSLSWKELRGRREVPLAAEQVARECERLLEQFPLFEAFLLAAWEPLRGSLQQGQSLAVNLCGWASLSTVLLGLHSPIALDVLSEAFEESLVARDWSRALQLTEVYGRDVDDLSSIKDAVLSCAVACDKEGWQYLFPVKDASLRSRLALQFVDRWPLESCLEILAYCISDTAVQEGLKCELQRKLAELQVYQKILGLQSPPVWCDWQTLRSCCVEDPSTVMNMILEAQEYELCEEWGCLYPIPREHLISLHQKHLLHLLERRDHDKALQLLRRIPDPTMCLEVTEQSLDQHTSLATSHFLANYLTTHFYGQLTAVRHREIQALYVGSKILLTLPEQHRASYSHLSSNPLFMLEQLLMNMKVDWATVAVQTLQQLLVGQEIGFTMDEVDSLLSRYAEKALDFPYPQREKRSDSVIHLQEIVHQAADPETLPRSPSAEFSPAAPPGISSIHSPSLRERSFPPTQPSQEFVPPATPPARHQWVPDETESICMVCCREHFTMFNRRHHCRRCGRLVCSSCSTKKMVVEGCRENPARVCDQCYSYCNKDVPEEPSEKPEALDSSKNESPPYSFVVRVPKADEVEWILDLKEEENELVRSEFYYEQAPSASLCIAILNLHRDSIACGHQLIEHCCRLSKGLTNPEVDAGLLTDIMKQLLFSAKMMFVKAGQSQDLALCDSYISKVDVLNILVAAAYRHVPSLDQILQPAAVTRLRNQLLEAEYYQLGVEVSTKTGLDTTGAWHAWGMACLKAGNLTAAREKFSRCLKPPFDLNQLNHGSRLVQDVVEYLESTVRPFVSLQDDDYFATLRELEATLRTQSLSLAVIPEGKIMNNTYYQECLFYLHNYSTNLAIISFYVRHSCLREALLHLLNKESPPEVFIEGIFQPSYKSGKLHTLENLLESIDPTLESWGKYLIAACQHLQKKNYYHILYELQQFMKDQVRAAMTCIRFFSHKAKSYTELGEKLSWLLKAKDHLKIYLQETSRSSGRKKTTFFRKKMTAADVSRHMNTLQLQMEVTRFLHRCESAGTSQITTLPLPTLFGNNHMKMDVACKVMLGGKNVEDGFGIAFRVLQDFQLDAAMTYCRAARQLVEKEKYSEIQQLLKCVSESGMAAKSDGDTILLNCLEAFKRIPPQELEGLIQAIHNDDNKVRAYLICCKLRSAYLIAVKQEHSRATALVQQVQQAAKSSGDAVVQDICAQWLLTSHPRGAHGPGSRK

| Variant | effect of a mutation on the interaction |
| --- | --- |
| L21Q | disrupting interaction strength |
| R312Q | with no effect |
| T261A | with no effect |

Variants of: B1
Conditions: with ccnc_human CCNC

| Variant | effect of a mutation on the interaction |
| --- | --- |
| L21Q | disrupting interaction strength |
| R312Q | with no effect |
| T261A | with no effect |

Variants of: B1
Conditions: with aapk1_human PRKAA1, Q13131
aapk1_human PRKAA1, Q13131, sequence (Q13131 whole entry, looked up): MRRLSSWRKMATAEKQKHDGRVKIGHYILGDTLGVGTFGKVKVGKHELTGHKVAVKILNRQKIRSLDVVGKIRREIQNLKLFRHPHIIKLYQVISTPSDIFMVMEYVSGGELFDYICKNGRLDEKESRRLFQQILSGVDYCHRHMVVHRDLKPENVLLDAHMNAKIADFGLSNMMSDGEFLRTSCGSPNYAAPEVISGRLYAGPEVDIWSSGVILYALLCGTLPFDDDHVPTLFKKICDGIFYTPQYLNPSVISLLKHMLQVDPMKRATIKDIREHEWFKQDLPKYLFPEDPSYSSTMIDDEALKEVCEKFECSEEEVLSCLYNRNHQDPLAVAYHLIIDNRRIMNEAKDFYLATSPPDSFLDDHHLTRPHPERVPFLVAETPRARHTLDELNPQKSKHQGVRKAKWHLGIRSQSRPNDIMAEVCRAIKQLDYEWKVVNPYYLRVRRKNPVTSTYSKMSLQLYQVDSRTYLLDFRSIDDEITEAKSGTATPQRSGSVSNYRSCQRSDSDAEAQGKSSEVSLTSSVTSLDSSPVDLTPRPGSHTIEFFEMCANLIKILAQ

| Variant | effect of a mutation on the interaction |
| --- | --- |
| L21Q | disrupting interaction strength |
| R312Q | with no effect |
| T261A | with no effect |
